The test has as its target thrombospondin-1 (human, UniProt P07996 19-1170). Nature of the test: ELISA.

thrombospondin-1, sequence (P07996 19-1170): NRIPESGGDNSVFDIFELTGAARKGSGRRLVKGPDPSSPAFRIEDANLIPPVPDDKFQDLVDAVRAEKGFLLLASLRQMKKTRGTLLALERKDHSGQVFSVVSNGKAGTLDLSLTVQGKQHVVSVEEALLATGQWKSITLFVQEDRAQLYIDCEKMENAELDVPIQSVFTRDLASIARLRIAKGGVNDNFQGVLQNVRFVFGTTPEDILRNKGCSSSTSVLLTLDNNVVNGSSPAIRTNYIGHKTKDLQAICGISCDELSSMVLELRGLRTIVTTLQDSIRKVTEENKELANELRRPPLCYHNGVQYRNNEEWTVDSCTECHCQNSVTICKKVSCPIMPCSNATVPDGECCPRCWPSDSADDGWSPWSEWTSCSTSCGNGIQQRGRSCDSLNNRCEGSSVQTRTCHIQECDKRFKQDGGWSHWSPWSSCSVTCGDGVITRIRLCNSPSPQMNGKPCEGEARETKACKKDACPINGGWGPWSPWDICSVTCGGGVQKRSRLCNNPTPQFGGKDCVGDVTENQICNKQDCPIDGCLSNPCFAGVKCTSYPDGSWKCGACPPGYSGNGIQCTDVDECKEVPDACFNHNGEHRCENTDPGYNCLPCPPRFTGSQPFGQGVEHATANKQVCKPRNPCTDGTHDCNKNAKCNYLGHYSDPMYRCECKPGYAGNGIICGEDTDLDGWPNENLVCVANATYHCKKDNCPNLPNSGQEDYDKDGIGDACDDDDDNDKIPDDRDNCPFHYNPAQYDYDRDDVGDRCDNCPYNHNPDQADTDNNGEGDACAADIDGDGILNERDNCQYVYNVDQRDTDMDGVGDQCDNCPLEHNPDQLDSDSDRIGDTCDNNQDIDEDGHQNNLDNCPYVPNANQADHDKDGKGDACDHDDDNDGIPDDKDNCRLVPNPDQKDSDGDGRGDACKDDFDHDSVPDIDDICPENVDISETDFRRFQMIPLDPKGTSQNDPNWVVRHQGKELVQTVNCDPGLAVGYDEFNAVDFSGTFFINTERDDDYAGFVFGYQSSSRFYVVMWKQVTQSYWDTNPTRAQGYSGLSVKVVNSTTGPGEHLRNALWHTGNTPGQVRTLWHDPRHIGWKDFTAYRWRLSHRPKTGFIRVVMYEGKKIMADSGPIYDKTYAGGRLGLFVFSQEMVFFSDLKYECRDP

As for SNIQVKQRGPYTYRVRFLAKENVTQDAEDNTVSFLQPNGA (domain or fragment, human, UniProt P16671 81-120, looked up) [recombinant thioredoxin/extended CD36 CLESH domain fusion protein (non-phosphorylated)], the binding result is recorded as “binds”.

For the origin of these results see PMC3298081 (Arteriosclerosis, Thrombosis, and Vascular Biology, 2012).
